Experimental findings from patent US20230272064A1 (ACROIMMUNE BIOTECH, published 2023) are described below.

“And” between values parts separate entries of the source, which are not always exact repeats. Equal values may be shown once.

The target in test [1] is T1, recombinant human TIGIT extracellular membrane protein with a C-terminal histidine tag (human, UniProt Q495A1 22-141).
T1 construct: extracellular domain; Bought protein; two different product numbers are printed for it; also called TIGIT-His; TIGIT-his
T1 sequence (looked up): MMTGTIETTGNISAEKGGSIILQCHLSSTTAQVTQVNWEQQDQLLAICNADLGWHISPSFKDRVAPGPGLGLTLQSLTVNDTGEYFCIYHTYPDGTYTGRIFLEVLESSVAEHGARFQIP
In words: BLI (Fortebio-OCTET RED96), mAb captured on FAB2G sensor, TIGIT-His monomer as analyte, global fit, monovalent binding. Background: In BLI a coated tip is dipped into the sample, and binding shifts an interference pattern.

The target in test [2] is T2, CD28 Fc fusion protein (Homo sapiens (Human), UniProt P10747 19-152). As to the kind of experiment: ELISA, antigen coated at 2 µg/mL, mAb at 1 µg/mL.
T2 sequence (P10747 19-152 limits assumed): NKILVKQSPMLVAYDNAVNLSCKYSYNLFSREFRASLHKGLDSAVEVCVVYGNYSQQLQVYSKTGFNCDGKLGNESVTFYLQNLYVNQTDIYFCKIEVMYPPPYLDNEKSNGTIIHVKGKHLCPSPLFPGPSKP
Test [3] addresses T3, B7-1 Fc fusion protein (Homo sapiens (Human), UniProt P33681 35-242).
T3 sequence: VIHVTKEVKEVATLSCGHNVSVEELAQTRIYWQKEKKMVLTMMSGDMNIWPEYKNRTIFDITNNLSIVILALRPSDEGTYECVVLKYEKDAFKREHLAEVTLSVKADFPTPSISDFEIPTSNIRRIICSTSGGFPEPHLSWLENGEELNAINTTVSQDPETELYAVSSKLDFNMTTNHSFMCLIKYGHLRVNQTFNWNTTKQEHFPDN
As to the kind of experiment: ELISA, antigen coated at 2 µg/mL, mAb at 1 µg/mL. On the technique in general: In an ELISA, binding on a coated surface is turned into a signal by an enzyme label.

The target in test [4] is PV1- (coated antigen of Table 2). As to the kind of experiment: ELISA, antigen coated at 2 µg/mL, mAb at 1 µg/mL.
The target in test [5] is PD1H (PD2) Fc fusion protein. In words: ELISA, antigen coated at 2 µg/mL, mAb at 1 µg/mL.
In the next test the target is T4, PD-L2 Fc fusion protein.
T4 sequence (Q9BQ51 whole entry, species assumed, looked up): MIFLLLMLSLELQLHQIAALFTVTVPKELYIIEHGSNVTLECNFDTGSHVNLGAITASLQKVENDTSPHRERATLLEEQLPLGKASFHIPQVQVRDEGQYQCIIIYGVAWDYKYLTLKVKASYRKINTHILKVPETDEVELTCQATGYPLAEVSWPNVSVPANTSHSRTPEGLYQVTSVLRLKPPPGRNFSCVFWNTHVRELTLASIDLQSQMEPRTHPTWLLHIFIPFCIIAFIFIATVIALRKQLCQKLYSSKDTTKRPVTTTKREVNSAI
As to the kind of experiment: ELISA, antigen coated at 2 µg/mL, mAb at 1 µg/mL.

A further test concerns the target CTLA4 Fc fusion protein. In words: ELISA, antigen coated at 2 µg/mL, mAb at 1 µg/mL.
Test [6] concerns the target T1, recombinant human TIGIT extracellular …. In words: ELISA, antigen coated at 2 µg/mL, mAb at 1 µg/mL.
In another test the target is Sirpa Fc fusion protein. As to the kind of experiment: ELISA, antigen coated at 2 µg/mL, mAb at 1 µg/mL.
Sirpa Fc fusion protein, sequence (P78324 whole entry, the tested form may be a part): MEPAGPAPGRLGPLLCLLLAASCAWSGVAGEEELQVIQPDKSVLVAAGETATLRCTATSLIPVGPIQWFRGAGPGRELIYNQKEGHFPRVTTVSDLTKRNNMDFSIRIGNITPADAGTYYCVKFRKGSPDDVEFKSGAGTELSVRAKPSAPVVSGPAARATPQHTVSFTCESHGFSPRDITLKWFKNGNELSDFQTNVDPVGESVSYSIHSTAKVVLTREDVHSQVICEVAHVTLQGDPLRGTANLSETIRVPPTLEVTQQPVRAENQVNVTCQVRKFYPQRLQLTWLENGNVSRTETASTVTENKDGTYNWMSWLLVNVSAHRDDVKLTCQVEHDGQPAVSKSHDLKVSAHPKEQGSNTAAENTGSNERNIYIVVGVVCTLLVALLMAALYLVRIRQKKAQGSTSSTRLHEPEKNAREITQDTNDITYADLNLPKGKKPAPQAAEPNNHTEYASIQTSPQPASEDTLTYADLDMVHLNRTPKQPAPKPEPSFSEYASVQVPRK
The target in test [7] is T5, PD-1 Fc fusion protein (Homo sapiens (Human), UniProt Q15116 25-170). As to the kind of experiment: ELISA, antigen coated at 2 µg/mL, mAb at 1 µg/mL.
T5 sequence (Q15116 25-170 limits assumed): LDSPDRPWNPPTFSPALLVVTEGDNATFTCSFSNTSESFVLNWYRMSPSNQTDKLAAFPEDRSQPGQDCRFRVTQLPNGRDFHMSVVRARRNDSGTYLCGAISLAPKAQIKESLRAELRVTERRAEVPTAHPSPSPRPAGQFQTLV
Test [8] concerns the target T6, BTLA Fc fusion protein (Homo sapiens (Human), UniProt Q7Z6A9 31-157).
T6 sequence: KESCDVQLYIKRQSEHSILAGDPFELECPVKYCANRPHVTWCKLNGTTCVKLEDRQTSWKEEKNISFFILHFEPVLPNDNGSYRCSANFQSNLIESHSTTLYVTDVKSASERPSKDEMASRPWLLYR
As to the kind of experiment: ELISA, antigen coated at 2 µg/mL, mAb at 1 µg/mL.

In another test the target is PD-L1 Fc fusion protein. As to the kind of experiment: ELISA, antigen coated at 2 µg/mL, mAb at 1 µg/mL.
PD-L1 Fc fusion protein, sequence (Q9NZQ7 whole entry, the tested form may be a part): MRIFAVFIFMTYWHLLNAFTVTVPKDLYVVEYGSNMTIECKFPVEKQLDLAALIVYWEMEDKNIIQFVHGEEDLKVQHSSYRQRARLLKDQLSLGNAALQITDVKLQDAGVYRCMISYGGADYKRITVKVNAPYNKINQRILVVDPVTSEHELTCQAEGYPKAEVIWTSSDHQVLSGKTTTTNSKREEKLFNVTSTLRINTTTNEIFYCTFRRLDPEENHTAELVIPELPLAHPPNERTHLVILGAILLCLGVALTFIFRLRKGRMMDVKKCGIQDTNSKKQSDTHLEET
Another test addresses CD3 Fc fusion protein. In words: ELISA, antigen coated at 2 µg/mL, mAb at 1 µg/mL.
Test [9] deals with T1, recombinant human TIGIT extracellular …. In words: competitive ELISA, TIGIT-His coated, competitor biotin-CD155-Fc.
For test [10], the target named is T7, mouse TIGIT on C57/B6 wild-type mouse lymphocytes (mouse, UniProt P86176 29-249).
T7 construct: whole, on cells
T7 sequence (looked up): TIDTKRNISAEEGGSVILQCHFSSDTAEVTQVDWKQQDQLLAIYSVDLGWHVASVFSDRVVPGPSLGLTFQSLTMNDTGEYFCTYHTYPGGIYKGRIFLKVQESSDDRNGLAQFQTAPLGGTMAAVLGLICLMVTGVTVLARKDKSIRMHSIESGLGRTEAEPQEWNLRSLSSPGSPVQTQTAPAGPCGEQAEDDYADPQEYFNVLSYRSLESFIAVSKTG
As to the kind of experiment: flow cytometry on peripheral blood lymphocytes of a wild-type C57 mouse, 33D2 hybridoma supernatant, FITC rabbit anti-mouse IgG, PE anti-mouse CD3e. (In general: Flow cytometry measures light scatter and fluorescence of single cells or particles in a stream.)

The target of test [11] is T2, CD28 Fc fusion protein. In words: ELISA, antigen coated at 2 µg/mL.
Test [12] deals with T3, B7-1 Fc fusion protein. As to the kind of experiment: ELISA, antigen coated at 2 µg/mL.
The target of test [13] is T5, PD-1 Fc fusion protein. As to the kind of experiment: ELISA, antigen coated at 2 µg/mL.
The target in test [14] is T6, BTLA Fc fusion protein. As to the kind of experiment: ELISA, antigen coated at 2 µg/mL.
Test [15] deals with T1, recombinant human TIGIT extracellular …. As to the kind of experiment: competitive ELISA, TIGIT-His coated, competitor biotin-CD155-Fc; average of samples #2 and #4.

CTLA4 Fc fusion protein, sequence (P16410 36-161): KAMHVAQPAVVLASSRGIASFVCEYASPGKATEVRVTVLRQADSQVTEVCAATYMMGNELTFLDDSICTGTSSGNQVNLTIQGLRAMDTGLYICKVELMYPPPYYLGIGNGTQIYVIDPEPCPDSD

B1: humanized antibody h33D2 (antibody, V domains shown)
VH: QVQLVQSGAEVKKPGASVKVSCKASGYSFTGYYMHWVRQAPGQGLEWMGRVNPNNGDTRYNQKFKGRVTMTRDTSISTAYMELSRLRSDDTVVYYCAREGDYDERFAYWGQGTLVTVSA
VL: DIQLTQSPSFLSASVGDRVTITCKASQDVGSTVAWYQQKPGKAPKLLIYWASTRHTGVPSRFSGSGSGTEFTLTISSLQPEDFATYYCQQYTSFPYTFGGGTKLEIK
notes: IgG4-kappa; human IgG4 heavy chain constant region with S228P in the hinge and human kappa light chain constant region; also called humanized 33D2 mAb; h33D2-light chain and h33D2-heave chain
In the case of B1, in test [1], the equilibrium dissociation constant (Kd) (usually the constant that tells how readily two partners part at equilibrium) came to 0.843 nM; the koff (commonly the first-order rate constant of dissociation) was 0.00023 s⁻¹; the kon – broadly, the rate constant with which the complex forms – worked out at 273000 M⁻¹ s⁻¹.

B2: murine anti-human TIGIT monoclonal antibody 33D2 (antibody, V domains shown)
VH: EVQLQQSGPDLVKPGASVKISCKASGYSFTGYYMHWVKQSHGKSLEWIGRVNPNNGDTRYNQKFKGKAILTVDKSSSTAYMELRSLTSEDSAVYYCAREGDYDERFAYWGQGTLVTVSA
VL: DIVMTQSHKFMSTSLGDRVSITCKASQDVGSTVAWYQQKPGQSPKLLIYWASTRHTGVPDRFTGSGSGTDFTLTITNVQSEDLADYFCQQYTSFPYTFGGGTKLEIK
notes: Mouse hybridoma antibody, used as purified protein (Protein G) or as hybridoma supernatant; also called m33D2; 33D2 mAb
Turning to B2, the “OD at 495 nm” value turned out to be 0.03 OD with CD28 Fc fusion protein [2]; 0.03 OD with B7-1 Fc fusion protein [3]; 0.05 OD in test [4]; 0.01 OD in test [5]; 0.04 OD in the test with PD-L2 Fc fusion protein; 0.02 OD with CTLA4 Fc fusion protein. In addition, the “OD at 495 nm” value in [6] turned out to be 1.01 OD; with Sirpa Fc fusion protein, 0.01 OD; in the test with PD-1 Fc fusion protein [7], 0.01 OD; with BTLA Fc fusion protein [8], 0.01 OD; with PD-L1 Fc fusion protein, 0 OD; with CD3 Fc fusion protein, 0.01 OD. Moreover, the concentration for half-maximal inhibition (IC50) – broadly, the point on the concentration scale where inhibition reaches its midpoint – in test [9] was 0.135 µg/mL and 0.9 nM and 0.125 µg/mL and 0.833 nM; in test [15], 0.13 µg/mL and 0.867 nM. In addition, the binding result in [10] was “no binding”; in the test with CD28 Fc fusion protein [11], “no binding (tested: 1 µg/mL)”; with B7-1 Fc fusion protein [12] it was “no binding (tested: 1 µg/mL)”; in the test with PD-1 Fc fusion protein [13] it was “no binding (tested: 1 µg/mL)”; in the test with BTLA Fc fusion protein [14] it was “no binding (tested: 1 µg/mL)”.
